Reference: US20200239573A1 (CRESCENDO BIOLOGICS, published 2020)

Tests used:
[1] = target: T1, human PD-1 expressed on cells (CHO human PD-1 cells) (human, UniProt Q15116 21-288); experiment: FMAT epitope competition on CHO human PD-1 cells; competitor 1 nM 1.1-Strep
T1 construct: also called CHO TREX human PD-1 cell line; CHO PD-1
Description: (§1) For the epitope competition assay reagents were prepared in FMAT assay buffer. […] Plates were incubated for a minimum of 1.5 hours at room temperature then fluorescence measured in the FL2 (502 nm-537 nm) and FL5 (677-800 nm) channels on the Mirrorball plate reader (TTP) following excitation at 488 nm and 640 nm. Data was expressed as a % of the total binding control (i.e. % control) after subtraction of the background signal determined from the non-specific binding control wells.

[2] = target: T1, human PD-1 expressed on cells (CHO …); experiment: FMAT 1.57 epitope competition on CHO human PD-1 cells; competitor 1.57-Strep; sample kept 4 days in human serum
[3] = target: T1, human PD-1 expressed on cells (CHO …); experiment: FMAT inhibition; 100 pM PD-L1-Fc on CHO human PD-1 cells
Description: as §1, with “All” for “For the epitope competition assay”, “reagents and serially diluted VH” for “reagents”, “2” for “a minimum of 1.5”

[4] = target: T1, human PD-1 expressed on cells (CHO …); experiment: cell-based or functional assay
[5] = target: T2, recombinant human PD-1 Fc chimera (human, UniProt Q15116 25-167); experiment: SPR Biacore T200, PD-1-huFc amine-coupled, single cycle kinetics
T2 construct: Bought protein; also called human PD-1-huFc; huPD-1-Fc; not shown: human Fc
T2 sequence (Q15116 25-167 limits assumed, change not shown): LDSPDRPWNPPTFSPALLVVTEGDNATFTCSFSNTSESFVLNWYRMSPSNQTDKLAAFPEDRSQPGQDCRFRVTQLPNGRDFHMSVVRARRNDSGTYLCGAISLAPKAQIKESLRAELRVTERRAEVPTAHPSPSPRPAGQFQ
Description: Binding kinetics of certain VH single domain antibodies binding to human PD-1-huFc were measured by surface plasmon resonance (SPR) technology using Biacore T200 instrument (GE Healthcare). Recombinant human PD-1-huFc was immobilized by standard amine coupling to CM5 sensorschip (GE Healthcare) using in range of 0.1-0.01 mg/ml solution of antigen in 10 mM sodium acetate at pH 5.5. For the reference flow cell, a blank immobilisation was carried out. Single cycle kinetics assays were used to study the interaction, a five point, three-fold dilution series of each Humabody® was made with a top concentration of 30 nM. The binding kinetics were followed by flowing the Humabody® over the chip surface in HBS EP+ buffer at a flow rate of 30 μl/min. The contact time for each of the association steps was 180 seconds and the dissociation step was varied between 1200-3600 seconds. The data was fitted to a 1:1 binding model after double reference subtraction using the Biacore T200 Evaluation software.

[6] = target: T1, human PD-1 expressed on cells (CHO …); experiment: FMAT 1.57 epitope competition on CHO human PD-1 cells; competitor 1.57-Strep; sample kept 0 days in human serum; Day 0, Human column
mouse PD-1 protein = target: T3, mouse PD-1 protein (mouse, UniProt Q02242 25-167); experiment: HTRF binding, 2 nM mouse PD-1
T3 construct: Detected with anti human-Fc cryptate, so probably Fc tagged; also called mouse PD-1 (R&D Systems cat no. 1021-PD)
T3 sequence (looked up): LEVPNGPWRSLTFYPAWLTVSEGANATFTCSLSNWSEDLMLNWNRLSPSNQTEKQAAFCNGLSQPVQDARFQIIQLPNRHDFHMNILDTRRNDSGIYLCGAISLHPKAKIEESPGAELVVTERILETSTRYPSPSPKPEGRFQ
Description: e) Species Cross Reactivity Testing Purified […] were tested for their ability to bind to human PD-1 (R&D Systems cat no. 1086-PD), cynomolgus PD-1 (Acro Biosystems cat no. PD-1-05254) and mouse PD-1 (R&D Systems cat no. 1021-PD) in an HTRF Binding assay format. All reagents and serially diluted VH were prepared in assay buffer containing PBS, 0.1% BSA and 0.4M Potassium Fluoride. Samples or assay buffer (non-specific binding) were incubated with 2 nM human/cynomolgus or mouse PD-1, 1 nM Anti human-Fc Cryptate PAb (Cisbio cat. no. 61HFCKLB) and 30 nM anti His-D2 (CisBio cat no 61HISDLA) in black 384-shallow well assay plates for a minimum of 3 hours at room temperature. Time-resolved fluorescent emission at 620 nm and 665 nm was measured following excitation at 337 nm on the BMG PHERAstar plate reader. The HTRF ratio were calculated ((665 nm emission/620 nm emission)*10000) and the data corrected for (non-specific binding) to give the specific binding signal.

[7] = target: human PD-1 on primary human CD4+ T cells (human, UniProt Q15116 21-288); experiment: flow cytometry, PHA-stimulated human CD4+ T cells, donor 3
Sequence of human PD-1 on primary human CD4+ T cells (Q15116 21-288): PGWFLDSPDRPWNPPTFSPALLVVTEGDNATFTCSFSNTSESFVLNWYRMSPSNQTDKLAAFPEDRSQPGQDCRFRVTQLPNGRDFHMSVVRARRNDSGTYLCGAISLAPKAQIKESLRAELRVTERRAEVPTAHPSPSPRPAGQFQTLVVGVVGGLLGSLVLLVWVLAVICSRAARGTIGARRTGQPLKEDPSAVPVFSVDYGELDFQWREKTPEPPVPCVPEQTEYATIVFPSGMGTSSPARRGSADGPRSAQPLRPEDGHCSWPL
Description: Binding of monovalent single domain antibodies and multivalent binding agents to T cells was measured using flow cytometry. […] T-cells were stimulated with 2.5 μg/ml PHA for 2-4 days in RPMI media supplemented with 10% FBS, 2 mM Glutamine, 1× Pen/Strep. Cells were transferred into 96 well plates (75000 per well), blocked for 10 mins with PBS/1% BSA, then incubated with serially diluted VH in staining buffer (PBS/1% BSA) for 1 hour at 4° C. Cells were washed with staining buffer by centrifugation then incubated with 10 μg/ml biotinylated Anti His antibody for 40 mins at 4° C. Cells were washed again then stained with Streptavidin Alexa Fluor-488 (10 μg/ml) and 1:5000 diluted Live Dead near IR stain (Molecular Probes cat no. L10119) for 30 mins at 4° C. After further washing cells were fixed and fluorescence measured by flow cytometry.

T1 sequence (Q15116 21-288): as above

IC50 [1]: 0.79 nM | IC50 [2]: 6.1 nM | IC50 [3]: 2.8 nM | Reporter Assay EC50 [4]: 13 nM | Kd [5]: 0.059 nM | koff [5]: 3.67e-05 s⁻¹ | kon [5]: 620000 M⁻¹ s⁻¹ | IC50 [6]: 5.7 nM | binding result (mouse PD-1 protein): no binding | EC50 [7]: 1.2 nM
B1: Humabody® 1.92 (VHH)
VHH: EVQLVESGGGLVKPGGSLRLSCAASGFTFSDESMTWMRQAPGKGLEWVSYISSGGGVKFYADSVKGRFTISRDNAKNSLYLQMNSLRAEDTAVYYCAREAPLRLGESPHDAFDISGQGTMVTVSS
notes: human VH single domain antibody
